Source: patent US20240076386A1 (Pfizer, published 2024)

T1: human E-selectin, cell-surface expressed (human, UniProt P16581 22-610)
T1 sequence: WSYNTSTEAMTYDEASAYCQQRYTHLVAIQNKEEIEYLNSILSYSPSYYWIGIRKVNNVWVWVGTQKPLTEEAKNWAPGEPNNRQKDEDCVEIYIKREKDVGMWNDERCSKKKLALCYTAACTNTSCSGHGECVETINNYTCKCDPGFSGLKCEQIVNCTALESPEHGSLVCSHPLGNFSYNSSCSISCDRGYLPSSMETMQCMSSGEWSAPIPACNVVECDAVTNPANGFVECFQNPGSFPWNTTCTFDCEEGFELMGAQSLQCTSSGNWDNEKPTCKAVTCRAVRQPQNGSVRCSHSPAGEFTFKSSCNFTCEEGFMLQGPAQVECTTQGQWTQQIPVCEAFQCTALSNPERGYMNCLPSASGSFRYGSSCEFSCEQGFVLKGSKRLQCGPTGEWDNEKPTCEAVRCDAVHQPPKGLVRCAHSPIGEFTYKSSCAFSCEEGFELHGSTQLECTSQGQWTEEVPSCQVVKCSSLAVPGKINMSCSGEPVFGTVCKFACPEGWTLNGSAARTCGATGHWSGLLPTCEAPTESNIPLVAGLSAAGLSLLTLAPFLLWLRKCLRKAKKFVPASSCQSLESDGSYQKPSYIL

T2: soluble recombinant human L-selectin (human, UniProt P14151 39-332, limits assumed)
T2 sequence (looked up): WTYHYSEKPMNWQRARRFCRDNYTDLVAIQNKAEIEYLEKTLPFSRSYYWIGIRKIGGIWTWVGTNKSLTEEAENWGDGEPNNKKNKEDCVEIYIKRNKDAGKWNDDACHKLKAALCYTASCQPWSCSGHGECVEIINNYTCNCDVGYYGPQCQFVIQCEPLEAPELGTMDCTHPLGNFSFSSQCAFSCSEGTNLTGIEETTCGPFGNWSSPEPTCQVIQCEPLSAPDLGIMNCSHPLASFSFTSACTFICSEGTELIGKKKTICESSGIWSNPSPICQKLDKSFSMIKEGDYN

T3: cynomolgus monkey E-selectin extracellular domain with 10 His purification tail (cynomolgus monkey, UniProt P16581 22-554 (human entry))
T3 construct: also called cynomolgus E-selectin; truncated cynomolgus monkey E-selectin
T3 chain: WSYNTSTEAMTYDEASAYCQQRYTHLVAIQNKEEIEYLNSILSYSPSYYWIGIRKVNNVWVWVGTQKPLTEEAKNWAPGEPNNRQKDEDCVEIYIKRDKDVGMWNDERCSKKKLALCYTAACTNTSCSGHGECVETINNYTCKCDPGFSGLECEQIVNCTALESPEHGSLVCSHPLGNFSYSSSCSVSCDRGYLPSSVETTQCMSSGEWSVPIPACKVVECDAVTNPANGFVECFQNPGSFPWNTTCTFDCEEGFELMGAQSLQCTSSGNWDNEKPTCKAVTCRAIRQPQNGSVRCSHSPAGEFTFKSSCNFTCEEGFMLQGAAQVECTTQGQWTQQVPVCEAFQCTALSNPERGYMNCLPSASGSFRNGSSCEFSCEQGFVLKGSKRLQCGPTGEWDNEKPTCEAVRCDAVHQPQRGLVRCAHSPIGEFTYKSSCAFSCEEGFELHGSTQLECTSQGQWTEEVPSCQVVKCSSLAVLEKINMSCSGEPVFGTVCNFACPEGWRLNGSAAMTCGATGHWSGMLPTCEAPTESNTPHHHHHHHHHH


Target: T1, human E-selectin, cell-surface expressed
Assay: cell-based or functional assay

neutralization under physiological flow, HL-60 cell adhesion to CHO-human E-selectin cells IC50 (nM)	Binder
3.73	anti-E-selectin antibody 0164 chimera (antibody, human IgG1, kappa, V domains shown, rat VH/VL on effector-null human IgG1 and human kappa) VH: EVQLQQSGAEFGKPGTSVKLSCKVSGYNIRSSYMHWVNQRPGKGLEWIGRIDPANGNTIYAEKFKIKAILTADSSSNTAYMQLSQLKSDDTAIYFCAMDLYSTSEYWGQGVMVTVSS VL: DIQMTQSPSFLSASVGDRVTINCKTSQNINRYLNWYQQKLGEAPKLLIYNANSLQTGIPSRFSASGSGTDFTLTINSLQPEDVATYFCLQDNSWPLTFGSGTKLEIKR
4.17	humanized anti-E-selectin antibody 0841 (antibody, human IgG1, kappa, V domains shown, effector-null human IgG1, kappa) VH: EVQLVESGGGLVQPGGSLRLSCAASGYNIRSSYMHWVRQAPGKGLEWVARIDPANGNTIYAEKFKIRFTISADNAKNSAYLQMNSLRAEDTAVYYCAMDLYSTSEYWGQGTLVTVSS VL: DIQMTQSPSSLSASVGDRVTITCKTSQNINRYLNWYQQKPGKAPKLLIYNANSLQTGVPSRFSGSGSGTDFTLTISSLQPEDFATYFCLQDNSWPLTFGQGTKVEIKR

Target: T2, soluble recombinant human L-selectin
Assay: direct binding ELISA on immobilized human L-selectin, absorbance at 450 nm
Experimental: Recombinant histidine tagged human P-, E- or L-selectin (Sino Biologicals), mouse E-selectin (Sino Biologicals), rat E-selectin (Sino Biologicals) and Cynomolgus monkey E-selectin (Sino Biologicals) stock solutions were prepared to a final concentration of 1 μg/mL in phosphate buffered saline without calcium and magnesium. Controls included an L-selectin directed antibody (BioLegend; 304811) or P-selectin directed antibody or a negative control IgG. One hundred μL per well of the diluted recombinant selectin proteins were added into a Ni-NTA HisSorb 96 well plate (Qiagen; 35061). Plates were incubated on an orbital shaker at room temperature for 2 hours. Following the incubation, the plates were washed 3 times with 200 μL of wash buffer (50 mM TRIS [trisaminomethane]; 150 mM sodium chloride; 0.05% polysorbate 20, pH 7.4). To decrease nonspecific binding, plates were treated with 200 μL of blocking buffer (BD Opteia buffer; 555213; BD Biosciences), incubated on an orbital shaker for 1 hour at room temperature and washed as described above. […] One hundred μL specific detection antibodies (described below) were added and incubated for 1 hour: [0556] […] Anti L-selectin and anti-rat-E-selectin antibodies were detected using 1 to 25000 dilution of Peroxidase-conjugated AffiniPure Goat Anti-Mouse IgG (H+L); (Jackson ImnnunoResearch Lab).
Plates were washed and 100 μL per well of 1-Step Ultra TMB substrate (Thermo Scientific) was added and incubated for 5 minutes at room temperature. Reactions were stopped with 100 μL of 2 M sulfuric acid and absorbance read at 450 nm (Spectramax M5e).

binding result	Binder
no binding (tested: 10 ug/ml)	humanized anti-E-selectin antibody 0841 (antibody, human IgG1, kappa, V domains shown, effector-null human IgG1, kappa) VH: EVQLVESGGGLVQPGGSLRLSCAASGYNIRSSYMHWVRQAPGKGLEWVARIDPANGNTIYAEKFKIRFTISADNAKNSAYLQMNSLRAEDTAVYYCAMDLYSTSEYWGQGTLVTVSS VL: DIQMTQSPSSLSASVGDRVTITCKTSQNINRYLNWYQQKPGKAPKLLIYNANSLQTGVPSRFSGSGSGTDFTLTISSLQPEDFATYFCLQDNSWPLTFGQGTKVEIKR
no binding (tested: 10 ug/ml)	optimized anti-E-selectin antibody 1282 (antibody, human IgG1, kappa, V domains shown, effector-null human IgG1, kappa) VH: EVQLVESGGGLVQPGGSLRLSCAASGYAIRSAYMHWVRQAPGKGLEWVARIDPANGNTIYVDSVEGRFTISADNAKNSAYLQMNSLRAEDTAVYYCAMDLYSTSEYWGQGTLVTVSS VL: DIQMTQSPSSLSASVGDRVTITCKTSQNIERYLNWYQQKPGKAPKLLIYAASSLQSGVPSRFSGSGSGTDFTLTISSLQPEDFATYFCLQDNAWPLTFGQGTKVEIKR
no binding (tested: 10 ug/ml)	optimized anti-E-selectin antibody 1448 (antibody, human IgG1, kappa, V domains shown, effector-null human IgG1, kappa) VH: EVQLVESGGGLVQPGGSLRLSCAASGYAIRSAYMHWVRQAPGKGLEWVARIDPANGNTIYVDSVKERFTISADNAKNSAYLQMNSLRAEDTAVYYCAMDLYSTSEYWGQGTLVTVSS VL: DIQMTQSPSSLSASVGDRVTITCKTSQNIERYLNWYQQKPGKAPKLLIYAASSLQSGVPSRFSGSGSGTDFTLTISSLQPEDFATYFCLQDNAWPLTFGQGTKVEIKR
no binding (tested: 10 ug/ml)	optimized anti-E-selectin antibody 1444 (antibody, human IgG1, kappa, V domains shown, effector-null human IgG1, kappa) VH: EVQLVESGGGLVQPGGSLRLSCAASGYAIRSAYMHWVRQAPGKGLEWVARIDPANGNTIYVDSVTGRFTISADNAKNSAYLQMNSLRAEDTAVYYCAMDLYSTSEYWGQGTLVTVSS VL: DIQMTQSPSSLSASVGDRVTITCKTSQNIERYLNWYQQKPGKAPKLLIYAASSLQSGVPSRFSGSGSGTDFTLTISSLQPEDFATYFCLQDNAWPLTFGQGTKVEIKR
no binding (tested: 10 ug/ml)	optimized anti-E-selectin antibody 1284 (antibody, human IgG1, kappa, V domains shown, effector-null human IgG1, kappa) VH: EVQLVESGGGLVQPGGSLRLSCAASGYAIRSAYMHWVRQAPGKGLEWVARIDPANGNTIYVESVEGRFTISADNAKNSAYLQMNSLRAEDTAVYYCAMDLYSTSEYWGQGTLVTVSS VL: DIQMTQSPSSLSASVGDRVTITCKTSQNIERYLNWYQQKPGKAPKLLIYAASSLQSGVPSRFSGSGSGTDFTLTISSLQPEDFATYFCLQDNAWPLTFGQGTKVEIKR

Target: T3, cynomolgus monkey E-selectin …
Assay: SPR, antibody captured, E-selectin analyte
Experimental: To characterize binding of antibodies to human, cynomolgus monkey, and mouse E-selectin, an antibody was diluted to 0.5 μg/mL in HBS-EP+ and captured by the anti-human IgG immobilized on flow cells 2, 3 and 4 for 30 seconds to 1 minute at a flow rate of 10 μL/minute to achieve a capture level of 70 to 300 RU. Flow cell 1 was used as a reference surface. […] HBS-EP+ buffer cycles collected for each captured antibody were used for double-referencing (Myszka D G. J. Mol. Recognition 1999; 12(5):279-84). At the end of each cycle, the entire anti-IgG surface was regenerated by a 30 second pulse of 3 M MgCl₂ and a 30 second pulse of ionic buffer (1.83 M MgCl₂, 0.92 M Urea, 1.83 M Guanidine HCl, pH 7.4) (Andersson K. Analy. Chem. 1999; 71(13): 2475-81). Kinetic assays were conducted at 25° C. at a collection rate of 10 Hertz (Hz) on a BIAcore™ T200 instrument (GE Healthcare). Rate constants and affinities were determined by fitting the data to a 1:1 binding model in BIAcore™ T200 Evaluation software version 3.0 (GE Healthcare).

Kd [nM]	koff [s⁻¹]	kon [M⁻¹ s⁻¹]	t½ [s]	Binder
244	0.0374	154000	18.5	anti-E-selectin antibody 0159 chimera (antibody, human IgG1, kappa, V domains shown, rat VH/VL on effector-null human IgG1 and human kappa) VH: EVQLQQSGAELGKPGTSVKLSCKVSGYNIRSTYMHWVSQRPGKGLEWIGRIDPANGNTIYAEKFKRKATLTADTSSNTAYMQLSQLKSDDRAIYFCAMEVRVSFEYWGQGVMVTVSS VL: DIQMTQSPSFLSASVGDRVTINCKASQNINKYLDWYQQKLGEGPKLLIYYTNNLHTGIPSRFSGSGSGTDFTLTISSLQPEDVATYFCLQHDSGYTFGAGTKLELKR
492	0.0564	115000	12.3	anti-E-selectin antibody 0170 chimera (antibody, human IgG1, kappa, V domains shown, rat VH/VL on effector-null human IgG1 and human kappa) VH: EVQLQQSGAELGKPGTSVKLSCKVSGYSIRSTYMHWVNQRPGKGLEWVGRIDPANGNTIYAERFKNKATLTADTSSNTAYMQLSQLKSDDTAIYFCAVEILGIFDYWGQGVMVTVSS VL: DIQMTQSPSFLSASVGDRVTINCKASQNIDKYLDWYQQKLGEAPKLLMYNTNSLHTGIPSRFSGSGSGTDFTLTISSLQPEDVATYFCLQHNSGYTFGAGTKLELKR
45.8	0.00377	82400	184	anti-E-selectin antibody 0039 chimera (antibody, human IgG1, kappa, V domains shown, rat VH/VL on effector-null human IgG1 and human kappa) VH: QVQLKETGPGLVQPTQTLSITCTVSGFSLTGYYMQWVRQTPGKGLEWMGFIRSSGSTEYNSEFKSRLSISRDTSKNQVFLKMNSLKTEDTGVYYCARCPYKYSSFVYVGVMDAWGQGAPVTVSS VL: EIVMTQSPTSMSTSIGERVTLNCKASQTVGINVDWYQQTPGQPPKLLIYGASNRHTGVPDRFTGSGFGRDFTLTISNVEAEDLAVYCCLQYGSIPHTFGPGTKLELKR
3140	0.749	245000	0.93	anti-E-selectin antibody 0180 chimera (antibody, human IgG1, kappa, V domains shown, rat VH/VL on effector-null human IgG1 and human kappa) VH: EVQLQQSGAELGKPGTSVKLSCKVSGYKIRSSYMHWVNQRPGKGLEWIGRIDPANGNTIYGDKFKSKATLTSDTSSNTAYIQLSQLKSDDTAIYFCAIDIGTTFDYWGQGVMVTVSS VL: DIQMTQSPSFLSASVGDRVTINCKASQHINRYLNWYQQKLGEAPKLLIYDANNLQTGIPSRFSGSGSGTDFTLTISSLQPEDVATYFCLQHNSWPNTFGAGTKLELKR
45.4	0.012	265000	57.8	anti-E-selectin antibody 0164 chimera (antibody, human IgG1, kappa, V domains shown, rat VH/VL on effector-null human IgG1 and human kappa) VH: EVQLQQSGAEFGKPGTSVKLSCKVSGYNIRSSYMHWVNQRPGKGLEWIGRIDPANGNTIYAEKFKIKAILTADSSSNTAYMQLSQLKSDDTAIYFCAMDLYSTSEYWGQGVMVTVSS VL: DIQMTQSPSFLSASVGDRVTINCKTSQNINRYLNWYQQKLGEAPKLLIYNANSLQTGIPSRFSASGSGTDFTLTINSLQPEDVATYFCLQDNSWPLTFGSGTKLEIKR
